The supplement of paper PMC12042874
± gives the uncertainty stated by the source.

test: amyloid nucleation score (Sup35N fusion, yeast selection) (log enrichment); library NNK1; higher = more nucleation; inactive = no reads after selection
In short: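 Psi-negative yeast expressed Sup35N fused to peptides of 20 random codons. They were induced 24 hours with 100 μM copper sulfate, grown 7 days at 30°C without adenine and uracil, and their plasmid inserts from input and output were Illumina-sequenced. The nucleation score is the DiMSum log enrichment of output over input reads, centred on the mode score of non-aggregating sequences. Sequences with under 100 input reads were excluded.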

| Substance | amyloid nucleation score |
| --- | --- |
| WAILNDVMYHMWLNTFRTNV | -0.295 ± 0.64 |
| DGSCKLYVVFRPAVLGHGHS | 1.05 ± 0.85 |
| IPDNVVF | -1.27 ± 1.4 |
| ANDMMRKDCTFDTSVFMESV | -0.379 ± 0.26 |
| FSGVMLPVLIISRF | inactive |
| PALNRFLGTERDYDRYAGIA | -0.8 ± 0.49 |
| MVETVYMVEALCRGPEPVVV | -2.09 ± 2.4 |
| YFGDAGAFGFFSGLG | 0.192 ± 0.61 |
| SEPEKG | -0.463 ± 0.43 |
| DHLYLMV | 1.04 ± 0.72 |
| YWNKITRFFCMLESNVTLHT | 0.207 ± 1.4 |
| NDRTKNQSYFP | -0.195 ± 0.29 |
| ACRDVGHSVVLCKFKS | -1.01 ± 1.4 |
| DFILLVVLYFVLYFFTCMVL | 0.22 ± 0.72 |
| WLCTMLYVVVIRGCNVGNLE | -0.393 ± 0.65 |
| FDIVDANKGAAPGKTVYLWR | 0.641 ± 0.93 |
| FVIDV | -0.568 ± 0.98 |
| SCLCYEDRSLHGYWNMSYAQ | 0.938 ± 0.49 |
| ICCGCRYFFSTTSV | 6.7 ± 0.06 |
| VTSDLLD | 0.283 ± 0.4 |
| AVYFSSFR | 0.522 ± 0.33 |
| IIISMFRGAGRIYSF | 0.336 ± 0.64 |

| Substance | amyloid nucleation score |
| --- | --- |
| LSLSYPYFTFAHSVEMRESI | 9.039 ± 0.053 |
| TLCERGPPMMYCKC | -0.526 ± 0.45 |
| FKEYQRNA | -1.04 ± 2.7 |
| VEDENKDSVIKVEKLLPHNL | -0.342 ± 0.29 |
| VPILIVFQQVADASRIRIMR | 4.77 ± 0.059 |
| FTWERSH | 0.655 ± 0.68 |
| FNDQVQTWWLSYFEAPRYFK | -1.29 ± 2.4 |
| EYICLLTDSCNDTVLFSCPR | -0.583 ± 0.83 |
| NSNARAGVLDLPSCRTVVIE | 0.68 ± 0.65 |
| CAGWFRTFGAYKDAMARLAR | inactive |
| RFYMWYLVLEVLEIGKLADP | -1.04 ± 2.7 |
| SNNYLLCGIDGEVL | 1.07 ± 0.66 |
| ISPVGIIMYQCSAWLTRFRS | 0.204 ± 0.43 |
| PNRRCCPMVGFIWLYRVL | 0.836 ± 0.85 |
| ETHGYFVYVFVCGRWAGMK | -0.114 ± 0.28 |
| VNVLRTII | 0.255 ± 0.27 |
| SSKIRLFRDNTQYNGRWGSY | inactive |
| EKDVAIFLDLGYFHCTRSST | 1.97 ± 0.2 |
| YLGSWIKHRHAQWIARVRNR | 0.508 ± 0.29 |
| FWWIGYKTSSDGPRAVAIWC | -0.137 ± 0.26 |
| VYWNV | 1.1 ± 0.57 |
| CVYVSMLH | -0.483 ± 0.85 |

| Substance | amyloid nucleation score |
| --- | --- |
| VIGVGKMLGNNHYPLSDQGL | -0.05 ± 0.26 |
| RCWGRAYMYRPCCISV | -1.06 ± 0.8 |
| KSSTKGLISRGRFGYRVPSN | -0.215 ± 1.7 |
| IWRFIFGFGVYVCNGMALSQ | 0.291 ± 0.53 |
| IFTAVSSVAFLSLINVLSLL | 2.75 ± 0.21 |
| MKYPENSQWKDLYGFTVQVH | 0.102 ± 0.46 |
| CTIILL | 2.78 ± 0.14 |
| QFSAIIMSLSLLWSFMCAWE | -0.217 ± 0.55 |
| LRKDGSGK | 1.06 ± 0.21 |
| QGKLFFLVNLYSKPQNSHYG | 4.13 ± 0.069 |
| SNPYVWDVPLSRLWFVSWEL | 0.068 ± 0.65 |
| SYHRSSYYGLVNRMAFLVF | 2.94 ± 0.11 |
| VHSCFHFSNKGRLVWFPSFH | inactive |
| TWCTV | 0.082 ± 0.28 |
| NVSFWFYPLSAFSRPFFGLH | 2.74 ± 0.28 |
| TLMDQSLYIWGSN | -0.274 ± 0.63 |
| LNPLVLSCSGEIDSMFNV | 1.11 ± 0.34 |
| FVLERTGIRLLCL | 0.363 ± 0.38 |
| WLVHFDHTPNTSL | -0.069 ± 0.53 |
| RVLNMFYVMNCAIFWVVEAC | 2.49 ± 0.18 |
| VKSNFLHSGKIGYTSAVGFG | -1.16 ± 1.9 |
| VFRALKRVISRTYCMISFLK | 0.458 ± 0.79 |

| Substance | amyloid nucleation score |
| --- | --- |
| KYKVVI | -0.289 ± 0.24 |
| NEVPCVRRWSCRGLCARELM | 0.429 ± 0.88 |
| IYKVEFLTCFLDEGGWSPKV | -0.692 ± 0.95 |
| NVYLGGLVQYFCQWLAGSIR | 0.59 ± 0.62 |
| APGWTVDTSPYSAGVCVVTP | 0.099 ± 0.4 |
| VGRRNKVAWVKLRHEVRRCV | 0.106 ± 0.52 |
| RVDQVKSGFDMLYYPHWHQL | 0.532 ± 0.37 |
| FVSIRCVKYASYISHSHGLV | inactive |
| GLVHYMLLDPLAVNLSGCND | -0.301 ± 0.3 |
| IGFPRLTSEDS | 0.755 ± 0.4 |
| RALSVRSRQLG | 0.135 ± 0.97 |
| ERYSMLDGFGSDLNWIIYNN | 0.978 ± 0.71 |
| FRSLFYVFHYLECFYL | 3.52 ± 0.12 |
| VVFSWRIDSFGREEKGA | 0.349 ± 0.81 |
| RRNHNSRVVINVLMHVRCSI | 1.95 ± 0.1 |
| YHTTFSNVPFKGHARNAQRG | 0.172 ± 0.66 |
| RQDAVNNNTCNSISFNP | 0.048 ± 0.52 |
| MVKLSLVIMMVLNGGMANGS | 0.69 ± 0.81 |
| GNNGVEKPKNHISGELFGTN | -0.138 ± 0.35 |
| RKVITDKTLL | -0.099 ± 0.45 |
| VSLNASPL | 0.902 ± 0.57 |
